Values of other authors in paper PMC3720604.

Molecular target: CK2β (Homo sapiens) (UniProt P67870)
UniProt P67870, sequence (P67870 2-215): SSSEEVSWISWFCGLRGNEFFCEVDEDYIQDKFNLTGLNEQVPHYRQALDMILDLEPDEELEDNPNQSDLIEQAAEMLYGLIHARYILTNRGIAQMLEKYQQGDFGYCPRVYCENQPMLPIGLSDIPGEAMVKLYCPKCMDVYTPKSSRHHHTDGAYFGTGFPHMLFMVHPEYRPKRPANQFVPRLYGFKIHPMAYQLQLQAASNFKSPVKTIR

Substance: CK2α′ (from UniProt P19784)
- Kd: 45.5 nM
